# Results taken from patent US20100158968A1.
# Assays:
# [1] = target: mitogen-activated protein kinase-activated protein kinase 2 (human MK2) (human), P49137; assay: kinase inhibition, radiometric assay; settings: modification not given
# [2] = target: PKCδ (h) (protein kinase C) (human), Q05655; assay: cell-based or functional assay
# PKCδ (h) (protein kinase C) (human), Q05655, sequence (Q05655 whole entry, stated change not applied): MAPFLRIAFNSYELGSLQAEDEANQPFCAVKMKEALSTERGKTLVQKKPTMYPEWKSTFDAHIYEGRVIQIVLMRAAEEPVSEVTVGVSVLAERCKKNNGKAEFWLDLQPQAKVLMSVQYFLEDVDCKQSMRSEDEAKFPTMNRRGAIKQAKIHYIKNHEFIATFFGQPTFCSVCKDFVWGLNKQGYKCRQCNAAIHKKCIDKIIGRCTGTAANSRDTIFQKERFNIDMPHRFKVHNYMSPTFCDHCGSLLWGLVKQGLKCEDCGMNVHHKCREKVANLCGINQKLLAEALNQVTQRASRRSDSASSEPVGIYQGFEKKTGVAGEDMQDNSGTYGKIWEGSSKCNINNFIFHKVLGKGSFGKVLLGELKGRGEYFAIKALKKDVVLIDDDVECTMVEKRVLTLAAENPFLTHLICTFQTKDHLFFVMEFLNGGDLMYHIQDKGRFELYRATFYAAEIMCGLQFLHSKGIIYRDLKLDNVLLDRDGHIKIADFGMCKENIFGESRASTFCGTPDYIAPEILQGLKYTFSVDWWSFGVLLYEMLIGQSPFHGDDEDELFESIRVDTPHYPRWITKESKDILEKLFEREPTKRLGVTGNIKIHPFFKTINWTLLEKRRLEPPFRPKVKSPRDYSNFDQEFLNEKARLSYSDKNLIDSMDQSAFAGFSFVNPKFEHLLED
# mitogen-activated protein kinase-activated protein kinase 2 (human MK2) (human), P49137, sequence (P49137 46-400): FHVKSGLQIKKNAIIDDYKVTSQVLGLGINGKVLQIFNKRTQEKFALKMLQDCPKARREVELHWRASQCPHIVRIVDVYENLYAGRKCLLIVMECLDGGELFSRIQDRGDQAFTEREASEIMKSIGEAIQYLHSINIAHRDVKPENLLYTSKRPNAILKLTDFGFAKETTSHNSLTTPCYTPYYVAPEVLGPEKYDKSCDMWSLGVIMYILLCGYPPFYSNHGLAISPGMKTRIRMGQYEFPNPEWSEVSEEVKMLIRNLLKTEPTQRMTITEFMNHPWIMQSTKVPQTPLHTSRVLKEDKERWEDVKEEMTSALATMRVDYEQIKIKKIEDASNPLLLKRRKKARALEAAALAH
binder,measurement,setting,value
YARAAARQARAKALNRQLAVA,IC50,[1],18.9 µM
KAFAKLAARLYRLARQLGVAA,"Kinase Activity, peptide at 100 µM, radiometric assay",[2],24%
YARAAARQARALNRQLGVAA,"Kinase Activity, peptide at 300 µM, radiometric assay",[2],105%
WLRRIKAWLRRIKALNRQLGVAA,"Kinase Activity, peptide at 30 µM, radiometric assay",[2],11%
same,IC50,[1],0.737 µM
YARAAARQARALARQLGVAA,"Kinase Activity, peptide at 300 µM, radiometric assay",[2],101%
FAKLAARLYRLARQLGVAA,"Kinase Activity, peptide at 100 µM, radiometric assay",[2],40%
YARAAARQARAKALARQLAVA,IC50,[1],28.4 µM
FAKLAARLYRKALARQLGVAA,IC50,[1],1.77 µM
